Laboratory results: US20160130569, “A LAGLIDADG HOMING ENDONUCLEASE CLEAVING THE T CELL RECEPTOR ALPHA GENE AND USES THEREOF” (CELLECTIS, published 2016)

T1: TCRA_S02_2E5 (Ophiostoma novo-ulmi (engineered))
T1 chain: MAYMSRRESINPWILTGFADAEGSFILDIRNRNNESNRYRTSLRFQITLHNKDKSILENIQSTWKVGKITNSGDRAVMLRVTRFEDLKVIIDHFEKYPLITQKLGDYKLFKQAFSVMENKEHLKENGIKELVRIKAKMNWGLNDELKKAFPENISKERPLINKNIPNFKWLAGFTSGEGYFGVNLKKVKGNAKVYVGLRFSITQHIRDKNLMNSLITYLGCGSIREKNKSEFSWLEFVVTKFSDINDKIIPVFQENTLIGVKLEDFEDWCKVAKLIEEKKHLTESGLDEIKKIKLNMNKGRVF

T2: I-OnuI wild type (OnuWT) (Ophiostoma novo-ulmi)
T2 chain: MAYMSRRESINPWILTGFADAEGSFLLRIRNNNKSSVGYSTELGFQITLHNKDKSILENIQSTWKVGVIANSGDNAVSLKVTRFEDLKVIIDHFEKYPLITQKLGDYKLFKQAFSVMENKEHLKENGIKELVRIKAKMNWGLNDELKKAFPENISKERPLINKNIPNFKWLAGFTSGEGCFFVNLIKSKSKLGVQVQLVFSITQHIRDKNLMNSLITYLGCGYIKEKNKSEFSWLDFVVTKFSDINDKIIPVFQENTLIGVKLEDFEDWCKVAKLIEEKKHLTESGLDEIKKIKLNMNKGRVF

B1: TCRA_S02 (dsDNA)
DNA 1: TGTCTGCCTATTCACCGATTTT
DNA 2: AAAATCGGTGAATAGGCAGACA
B2: I-OnuI native target (dsDNA)
DNA 1: TTTCCACTTATTCAACCTTTTA
DNA 2: TAAAAGGTTGAATAAGTGGAAA

Key:
[1] = biological target: T1, TCRA_S02_2E5; test: flow; yeast surface display titration; Example 3 text names the variant as TCRA_S02_2E5_RD1_08; conditions: label: fluorescent dye (Alexa Fluor 647) in yeast display assays
Method: (§1) Samples of yeast displaying each LHE variant were independently incubated with increasing concentrations of fluorescent dye-labeled synthetic DNA substrates (y-axis). An antibody to a C-terminal epitope was also included (x-axis) such that DNA binding activity could be normalized to the amount of LHE protein expressed on the yeast surface, creating the co-linear pattern, with higher signal in the y-axis per x-axis signal where affinity is greater.
The LHE containing the engineered DNA recognition interfaces for the TCRA_S02 (SEQ ID NO: 3) target was tested for affinity, specificity, and toxicity characteristics. Affinity was tested by independently incubating yeast displaying the TCRA_S02_2E5_RD1_08 variant, (SEQ ID NO: 7, encoding SEQ ID NO: 8) with DNA substrates containing its target sequences at various concentrations. See FIG. 6 showing the affinity properties of this variant relative to the wild-type I-Onul protein. […] Toxicity was analyzed by in vitro transcribing each LHE into mRNA and transfecting primary human T cells by electroporation, followed by flow cytometry analysis of the survival of the cells relative to transfection with a control mRNA encoding a blue fluorescent protein (BFP). […]

[2] = biological target: T2, I-OnuI wild type (OnuWT); test: flow; yeast surface display titration; conditions: label: Alexa Fluor 647
Method: as §1
The LHE containing the engineered DNA recognition interfaces for the TCRA_S02 (SEQ ID NO: 3) target was tested for affinity, specificity, and toxicity characteristics. Affinity was tested by independently incubating yeast displaying the TCRA_S02_2E5_RD1_08 variant, (SEQ ID NO: 7, encoding SEQ ID NO: 8) with DNA substrates containing its target sequences at various concentrations. See FIG. 6 showing the affinity properties of this variant relative to the wild-type I-Onul protein. […] Toxicity was analyzed by in vitro transcribing each LHE into mRNA and transfecting primary human T cells by electroporation, followed by flow cytometry analysis of the survival of the cells relative to transfection with a control mRNA encoding a blue fluorescent protein (BFP).

Binder | Kd [1] [pM] | Kd [2] [pM]
B1 | ~90 | 
B2 |  | ~80
